The text below walks through data of the supplement of paper PMC9170038.

This data set has as its system MS2 coat protein. Briefly: apparent KD of MS2 coat protein; designed switch direction (-1 OFF switch, 1 ON switch): -1; higher = weaker reporter binding. Summed up: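 Designed RNA switches sharing common flanks were transcribed on Illumina chips by stalled E. coli RNA polymerase. They were titrated with SNAP-549-labelled MS2 coat protein, from 0.7 or 1.5 nM doubling to 3 µM, in Tris-HCl pH 7.5 buffer with KCl, MgCl2, BSA, DTT, tRNA and Tween-20. Titrations ran without input, with 200 uM small-molecule ligand, or with an oligonucleotide input. The apparent KD of each design is the median over its clusters, after curve-fitting of normalised cluster fluorescence.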

Where [1] appears, read: Eterna round: R95, input ligand: microRNA oligo, concentration not stated.
[2] abbreviates: Eterna round: R95, input ligand: FMN 200 uM.
Setting [3] is: Eterna round: R95, input ligand: none.
Setting [4] is: input ligand: microRNA oligo, concentration not stated.

Turning to “CCGUGCAGGCUGCGGUCCUACAUGAGGAUCACCCAUGUGGUCCGGUGGCGUGGGUCGCCGGACUUGGCUCGUCUUGU [salish99_S_TOV1_R5_016] (Eterna round: R97, puzzle: Sensor, turn-off variant 1)”, the “apparent KD of MS2 coat protein” value runs as follows: (input ligand: FMN 200 uM) 75.1 nM; (input ligand: none) 86.3 nM.
For “CCAUCGAGUGUGAGGAUAUGCUGGUCCUUGGAUCAGCAGAAGGCACAUGAGGAUCACCCAUGUGGAGACGGUGG [JL bmx4 3.18] (puzzle: Brourd's mod of Exclusion 4)”, the “apparent KD of MS2 coat protein” value under setting [1] was 44.3 nM.
As for “GUGUACGGAGGAUAUGUAUGGGCAGGCUGACCUGCAGCUUCACAUGAGGAUCACCCAUGUAGAAGGCUGUGCAC [JL-ex2-2.09 Brourd mod] (puzzle: Exclusion 2)”, the “apparent KD of MS2 coat protein” value under setting [1] is 10.7 nM.
Regarding “CCAUAGUGAGGAUAUGUAAACGUGUUGGCGAAAUCAGCACGGCAGAAGGCACAUGAGGAUCACCCAUGUCCUGA [Eternabot (L2) Solution 45] (Eterna round: R97, puzzle: Exclusion 4)”, the “apparent KD of MS2 coat protein” value (input ligand: FMN 200 uM) is 25.9 nM and the “apparent KD of MS2 coat protein” value (input ligand: none) is 20.8 nM.
Consider “ACAAGCUUUUUGUUCGUCUUAUAAUAUUCUAAGAGGAUAACAUGAGGAUCACCCAUGUAACAAAGACGGACUCAUGU [Sesor Array 14 - Jieux - Sensor v3, turn-off variant 2] (puzzle: Sensor v3, turn-off variant 2)”, for which the “apparent KD of MS2 coat protein” value amounted to 13 nM under setting [2], 139 nM under setting [1] and 11.7 nM under setting [3].
On to “UCAAUUAUGACAGGAUAUAGUUUUUGUUUUUCUCUAGAAGGGUCUAUGCACAUGAGGAUCACCCAUGUUCUUUUUAUUUGCAUU [JR_ExcNG1_Sub016] (Eterna round: R96, puzzle: Exclusion NG 1)”, for which the “apparent KD of MS2 coat protein” value amounted to 47.5 nM (input ligand: FMN 200 uM), 46.1 nM under setting [4] and 70.9 nM (input ligand: none).
The like results for “ACAUGAGGAUCACCCAUGUUAACGAAAAGGCUCAUGUAGAGUGAGGAUAUGUGAGACGAACGAGAACAGAAGGCACAAGACAGG [Deportation 2 - Jieux - Exclusion NG 3] (Eterna round: R96, puzzle: Exclusion NG 3)” were, in that order, 24.2 nM, 15.2 nM and 22.3 nM.
For “CGCUGGGCAGGAUAUGUUCUUGAGCACUUGAGGAUCACCCAAGUCAUCAAGAACUCAGGCACAGAAGGGUUUAUGG [salish99_ex5_r4_017] (Eterna round: R97, puzzle: Exclusion 5)”, the “apparent KD of MS2 coat protein” value by setting is: (input ligand: FMN 200 uM) 10.5 nM; (input ligand: none) 13.4 nM.
With “AAGUACCGUCACGAUAGUGAUGGUACAACAAGUAGUGAAACAUGAGGAUCACCCAUGUCCUCAGUUGCUCGUCUUAU [Sensor 3 - 86] (puzzle: Sensor v3, turn-off variant 2)”, the “apparent KD of MS2 coat protein” value is, setting by setting: under setting [2], 283 nM; under setting [1], 269 nM; under setting [3], 298 nM.
With “UCAUACGUUGAGGAUAUGUCAGUUAGAAUAUUUACAGAAGGCGAUACAUGAGGAUCACCCAUGUUUAUGGGCAU [Ex-6 Malc#5] (puzzle: Exclusion 6)”, the “apparent KD of MS2 coat protein” value under setting [1] is 173 nM.
In the case of “UUUAAUUUAAUUAAGAUCACAUGAGGAUCACCCAUGUAAUUAUAGGAUAUCAGCUCGUUUAGAGCUGAGAAGGAUAAUUACAUA [ExNG3/5-A2] (Eterna round: R96, puzzle: Exclusion NG 3)”, under setting [4], the “apparent KD of MS2 coat protein” value came out at 23.8 nM.
As to “GGAGUACAUGAGGAUCACCCAUGUGAGGAUAUGUAAGGAUAGUAGGUAAGGAAAGAGGACAGAAGGCACGGGAA [JR_Exclu1_Sub070] (puzzle: Exclusion 1)”, the “apparent KD of MS2 coat protein” value is, setting by setting: under setting [2], 46 nM; under setting [1], 41.4 nM; under setting [3], 67.2 nM.
Consider “AGUACUAACACGAAAGUGUUAGUCCAAUAAGCUUGUGAAACAUGAGGAUCACCCAUGUCCUCAUAAGCUCGUCUUAU [salish99_TOv2_r3_038] (puzzle: Sensor v3, turn-off variant 2)”, for which the “apparent KD of MS2 coat protein” value is 17.4 nM under setting [2] and 454 nM under setting [1].
Take “UCCUAACAUGAGGAUCACCCAUGUGAGGAUAUGAUACUAUGUACUUCGGUACAUAGUAUCAGAAGGCACAUCCU [Ex1-3: 8] (puzzle: Exclusion 1)”: the “apparent KD of MS2 coat protein” value under setting [1] was 17.5 nM.
On to “UAUGGUUAAGUCAGGAUAUGCACGAAGAGAACAAAGCAGAAGGGACAUGAGGAUCACCCAUGUAAAGUCGUGUU [Ex4 #76] (Eterna round: R97, puzzle: Brourd's mod of Exclusion 4)”, for which the “apparent KD of MS2 coat protein” value was 28.4 nM (input ligand: FMN 200 uM) and 32 nM (input ligand: none).
Consider “AGUACUAACGCGAAAGUGUUAGUACAAUAAGCUUGUGAAACAUGAGGAUCACCCAUGUCCUCAUAAGCUCGUCUUAU [salish99_TOv2_r3_023] (puzzle: Sensor v3, turn-off variant 2)”, for which the “apparent KD of MS2 coat protein” value was 19 nM under setting [2], 549 nM under setting [1] and 16.1 nM under setting [3].
The like results for “GCAAGCGAUUAGGCUCGUCUUAUAAAGAAAAGAAUGAAAACAUGAGGAUCACCCAUGUAAGUGGGAAAGUUGAAGUG [JR_SV3TOV2_Sub009] (puzzle: Sensor v3, turn-off variant 2)” were, in that order, 267 nM, 1340 nM and 210 nM.
In the case of “CUCGGCUAAGGAUAUGCAUAGCGGGCCAAGUCUUCUCAAGUACAUGAGGAUCACCCAUGUAGAAGGUAGUUAAC [EX2 B.29] (Eterna round: R97, puzzle: Exclusion 2)”, the “apparent KD of MS2 coat protein” value (input ligand: FMN 200 uM) was found to be 22.4 nM and the “apparent KD of MS2 coat protein” value (input ligand: none) came to 24.5 nM.
Take “UUGGUUGGUGUAGGAUAUGUAUGAGGAUCACCCAUUAAUAAAUUUUAACCACGAGGAUCACCCGUGUAGAAGGACAUUGGUUAU [pwkr exNG2 2xF5 1xFMN.22] (Eterna round: R96, puzzle: Exclusion NG 2)”: the “apparent KD of MS2 coat protein” value (input ligand: FMN 200 uM) is 52 nM, the “apparent KD of MS2 coat protein” value under setting [4] worked out at 42.1 nM and the “apparent KD of MS2 coat protein” value (input ligand: none) was 57.4 nM.
“AUUGAUGUUGAGGAUAUGCAUAUAUUUAUACUAGCAGAAGGCGAUACAUGAGGAUCACCCAUGUUCAUGGAAGU [JR_E6_Sub093] (puzzle: Exclusion 6)”: the “apparent KD of MS2 coat protein” value under setting [2] worked out at 39.1 nM, the “apparent KD of MS2 coat protein” value under setting [1] came out at 24.7 nM and the “apparent KD of MS2 coat protein” value under setting [3] stood at 28 nM.
On to “GUCUAGAGAGGAUAUAUUUACAGUGUACGUCGGAUGAUUGCACUUGAGGAUCACCCAAGUAGAAGGCUCGAGGG [EX2 #32] (Eterna round: R97, puzzle: Exclusion 2)”, for which the “apparent KD of MS2 coat protein” value turned out to be 457 nM (input ligand: FMN 200 uM) and 303 nM (input ligand: none).
On to “ACAUGAGGAUCACCCAUGUGACAAUAAUGGCUGAUAUAGAAACAGGAUAUUCGUGAAUAUCUAACGAAGAAGGGUUAUGACUGG [Deportation 67 - Jieux - Exclusion NG 3] (Eterna round: R96, puzzle: Exclusion NG 3)”, for which the “apparent KD of MS2 coat protein” value runs as follows: (input ligand: FMN 200 uM) 49 nM; under setting [4], 38.3 nM; (input ligand: none) 51.8 nM.
As for “GUGCCGCGAGGAUAUACAGACGGGUCCAUUACGUGUCUCGGACUUGAGGAUCACCCAAGUAGAAGGCGUCUCGG [salish99_ex2_r4_627] (Eterna round: R97, puzzle: Exclusion 2)”, the “apparent KD of MS2 coat protein” value (input ligand: FMN 200 uM) came to 26 nM and the “apparent KD of MS2 coat protein” value (input ligand: none) turned out to be 27.9 nM.
As to “UGAGCUUGAGGAUAUACAAGGCGACCGUGAGGUCGAGGGUUACAUGAGGAUCACCCAUGUAGAAGGCAAGUUCU [Mat - Exclusion 2 - JL Mod - D10] (Eterna round: R97, puzzle: Exclusion 2)”, the “apparent KD of MS2 coat protein” value is 460 nM (input ligand: FMN 200 uM) and 54.3 nM (input ligand: none).
The like results for “UCAGGUGCAGGAUAUACAUGAGGAUCACCCAUGUGGUCACGUGACGAUAGUCACGAAUGUAGAAGGGCACCUGA [E3/3-D1] (Eterna round: R97, puzzle: Exclusion 3)” were, in that order, 60.1 nM and 958 nM.
In the same order, the values of “AUCGUGUUAGGAUAUACACGACGCUGGGUAGCGGGCGGAGGGUAGAAGGGACAUGAGGAUCACCCAUGUUCGGG [Somalaesar] (Eterna round: R97, puzzle: Exclusion 4)” are 41.2 nM and 46.6 nM.
In the same order, the values of “AGUCGGUCAGGAUAUGCAGACGUAGACAUGAGGAUCACCCAUGUAACGUGGGCCUGGUUUGUAGAAGGGACGAGCA [EX5 #84] (Eterna round: R97, puzzle: Exclusion 5)” are 47.9 nM and 42.4 nM.
For “UAUUAGCAAGUAAGAUCCCACAUGAGGAUCACCCAUGUGCUCGUCAUAUCAGGUACUGUGAGGAAACUCACGGUACG [Sensor-V1 #86] (Eterna round: R97, puzzle: Sensor, turn-off variant 1)”, the “apparent KD of MS2 coat protein” value runs as follows: (input ligand: FMN 200 uM) 127 nM; (input ligand: none) 169 nM.
For “CUAGCGAUUGUAGGAUAUCGGACUGUUUCAGUCUGAGAAGGACAUGAGGAUCACCCAUGUGGAGGAUCGUGAGAUCCACGCUAG [JL ENG1 3.81] (Eterna round: R96, puzzle: Exclusion NG 1)”, the “apparent KD of MS2 coat protein” value runs as follows: (input ligand: FMN 200 uM) 136 nM; under setting [4], 24.6 nM; (input ligand: none) 34.5 nM.
For “GAAACGGGUGCACCUCAGUCACAUGAGGAUCACCCAUGUUCUGAGGAUAUGCAUCCAAACGGAACGCAGAAGGCGGAACGUAAC [Beisoner] (Eterna round: R96, puzzle: Exclusion NG 3)”, the “apparent KD of MS2 coat protein” value is, setting by setting: (input ligand: FMN 200 uM) 14.6 nM; under setting [4], 14 nM; (input ligand: none) 16.4 nM.
“CGUAAGGUAGGAUAUACAUGAGGAUCACCCAUGUCCCACCCGUUACCUAUGACCAUAUGUAGAAGGACCAAUGC [Exy#10] (Eterna round: R97, puzzle: Exclusion 3)”: the “apparent KD of MS2 coat protein” value is, setting by setting: (input ligand: FMN 200 uM) 20.7 nM; (input ligand: none) 22.7 nM.
